Experiments:
[1] = molecular target: HLA-A2 (HLA-A*0201) (human); assay: assembly assay, HLA-A2 recovery from TAP-deficient cell lysate
[2] = molecular target: HLA-A2 (HLA-A*0201) (human); assay: assembly assay, HLA-A2 recovery from T2 cell lysate

“C1 (HIV-1 pol476-484) (peptide; other documents disagree on this pair)” showed a C50 [1] of 0.2 µM and a C50 [2] of 0.7 µM.
